From patent US20240342207, “MODIFIED NUCLEIC ACID COMPOSITIONS AND ASSOCIATED METHODS FOR TREATMENT OF PHENYLKETONURIA” (BOARD OF REGENTS, THE UNIVERSITY OF TEXAS SYSTEM, published 2024)

T1: PAH (phenylalanine hydroxylase), wild type (Homo sapiens, UniProt P00439 P00439:1-452)
T1 sequence: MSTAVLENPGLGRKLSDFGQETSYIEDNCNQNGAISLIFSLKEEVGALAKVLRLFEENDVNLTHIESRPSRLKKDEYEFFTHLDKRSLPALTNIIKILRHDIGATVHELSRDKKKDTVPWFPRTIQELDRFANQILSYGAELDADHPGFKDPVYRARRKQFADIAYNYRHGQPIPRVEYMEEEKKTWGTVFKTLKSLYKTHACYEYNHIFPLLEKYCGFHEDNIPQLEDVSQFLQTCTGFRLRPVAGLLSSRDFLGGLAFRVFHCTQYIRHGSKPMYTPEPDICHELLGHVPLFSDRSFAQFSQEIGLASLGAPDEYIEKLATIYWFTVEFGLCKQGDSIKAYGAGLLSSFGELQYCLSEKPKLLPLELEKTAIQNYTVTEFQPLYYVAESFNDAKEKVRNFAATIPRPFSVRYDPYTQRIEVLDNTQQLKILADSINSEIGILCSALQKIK


Assays:
[1] = target: T1, PAH (phenylalanine hydroxylase), wild …; assay: EMSA; 5 mM MgCl2, 100 mM KCl, 30 C; conditions: tags: His-tag, pET-DEST42, E. coli BL21-CodonPlus (DE3)-RIPL, cobalt resin, label: 32P
Method: RNA Electrophoretic Mobility Shift Assay (EMSA). The gel mobility shift assay was performed as previously described (42). Briefly, 500 ng recombinant His-tagged wild-type PAH or mutants were incubated with 0.035 μmol labeled probe in a RNA-protein binding buffer [(50 mM Tris-HCl 7.9, 10% glycerol, 100 mM KCl, 5 mM MgCl₂, 10 mM (3-ME, 0.1% NP40] for 30 min at 30° C. For cold RNA competition, 0.035 μmol radiolabeled RNA probes were first mixed with 7 μmol cold RNA competitors and then subjected to the gel shift assay.

[2] = target: T1, PAH (phenylalanine hydroxylase), wild …; assay: mutant mimic abolished interaction; conditions: tags: His-tag, pET-DEST42, E. coli BL21-CodonPlus (DE3)-RIPL, cobalt resin
[3] = target: T1, PAH (phenylalanine hydroxylase), wild …; assay: affinity similar to full-length HULC; conditions: tags: His-tag, pET-DEST42, E. coli BL21-CodonPlus (DE3)-RIPL, cobalt resin

Binder	binding result [1]	binding result ([1]; stem-loop)	also measured
GGUGAGCUGCGUGUAGCUCGUC (ssRNA) [Pair 467-488 mutant EMSA probe]	no binding		
CAAAATGCATGTGTATCTTTG (XNA, 2'-F at all nucleotides) [HULC mutant mimic, 2'-F (A191G)]			binding result [2]: no binding
CCAAAAUGCAUGUGUAUCUUUGG (ssRNA) [HULC 180-202 mutant EMSA probe]	no binding		
GGUGAGCUGCGUAUAGCUCGUC (ssRNA) [Pair 467-488 WT EMSA probe]		binds	
CCAAAAUGCAUAUGUAUCUUUGG (ssRNA) [HULC 180-202 WT EMSA probe]		binds	
CAAAATGCATATGTATCTTTG (XNA, 2'-F at all nucleotides) [HULC mimic, 2'-F]			binding result [3]: binds
